Results as given in article PMC11555622.

What was measured:
[1] = domain-selective surface biotinylation, apical vs basolateral; conditions: glycan lost
[2] = confocal microscopy, polarized MDCK; conditions: glycan lost
[3] = surface biotinylation, amount of DUOX2 at cell surface; conditions: glycan lost; control: wild type DUOXA2
[4] = immunoblot of HEK293 lysate; conditions: glycan lost
[5] = surface biotinylation, amount of DUOX1 at cell surface; conditions: glycan lost; control: wild type DUOXA1

B1: DUOXA2: N84Q/N109Q/N121Q (protein)
parent chain: MTLWNGVLPFYPQPRHAAGFSVPLLIVILVFLALAASFLLILPGIRGHSRWFWLVRVLLSLFIGAEIVAVHFSAEWFVGTVNTNTSYKAFSAARVTARVRLLVGLEGINITLTGTPVHQLNETIDYNEQFTWRLKENYAAEYANALEKGLPDPVLYLAEKFTPSSPCGLYHQYHLAGHYASATLWVAFCFWLLSNVLLSTPAPLYGGLALLTTGAFALFGVFALASISSVPLCPLRLGSSALTTQYGAAFWVTLATGVLCLFLGGAVVSLQYVRPSALRTLLDQSAKDCSQERGGSPLILGDPLHKQAALPDLKCITTNL
For B1, the localisation_or_trafficking ([1]; control: wild type DUOXA2) was “no change”, the localisation_or_trafficking ([2]; control: wild type DUOXA2) was “no change” and the localisation_or_trafficking [3] was “decreases”. For the same protein, the expression_or_secretion ([4]; control: wild type DUOXA2) was “decreases”.

B2: DUOXA1: N84Q/N109Q/N121Q (protein)
parent chain: MATLGHTFPFYAGPKPTFPMDTTLASIIMIFLTALATFIVILPGIRGKTRLFWLLRVVTSLFIGAAILAVNFSSEWSVGQVSTNTSYKAFSSEWISADIGLQVGLGGVNITLTGTPVQQLNETINYNEEFTWRLGENYAEEYAKALEKGLPDPVLYLAEKFTPRSPCGLYRQYRLAGHYTSAMLWVAFLCWLLANVMLSMPVLVYGGYMLLATGIFQLLALLFFSMATSLTSPCPLHLGASVLHTHHGPAFWITLTTGLLCVLLGLAMAVAHRMQPHRLKAFFNQSVDEDPMLEWSPEEGGLLSPRYRSMADSPKSQDIPLSEASSTKAYCKEAHPKDPDCAL
In the case of B2, the localisation_or_trafficking ([1]; control: wild type DUOXA1) is reported as “changes”, the localisation_or_trafficking ([2]; control: wild type DUOXA1) is reported as “changes” and the localisation_or_trafficking [5] is reported as “decreases”. For the same protein, the expression_or_secretion ([4]; control: wild type DUOXA1) was “no change”.
